From publication PMC4754705

Molecular target: Envy
Assay: SEC; gel filtration on a Superdex 200 column; 100 μL of 10 μM purified protein loaded, flow rate 0.5 ml/min, elution monitored by absorbance at 280 nm; self-association (monomer or dimer)

- stoichiometry N: 2
Substance: Envy
